System: peptide library, one residue held at a place counted from the Y acceptor
Experiment: relative phosphorylation of the sub-library (ratio to the mean residue at this position); higher = residue favoured
Summary of the method: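 Every value reflects phosphorylation relative to the mean randomized residue. The sum of the 18 randomized residues, or 16 in the Ser/Thr-free library, served to normalize intensities at each position, which were then multiplied by that number. Intensities came from phosphorimaging with ImageQuant of biotinylated Tyr-centred peptides captured on streptavidin membranes after 90 min with purified recombinant kinases and 50 μM ATP plus γ-32P-ATP.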

Chain of EPHA8, construct: aa571-924, human (P29322 571-924, looked up): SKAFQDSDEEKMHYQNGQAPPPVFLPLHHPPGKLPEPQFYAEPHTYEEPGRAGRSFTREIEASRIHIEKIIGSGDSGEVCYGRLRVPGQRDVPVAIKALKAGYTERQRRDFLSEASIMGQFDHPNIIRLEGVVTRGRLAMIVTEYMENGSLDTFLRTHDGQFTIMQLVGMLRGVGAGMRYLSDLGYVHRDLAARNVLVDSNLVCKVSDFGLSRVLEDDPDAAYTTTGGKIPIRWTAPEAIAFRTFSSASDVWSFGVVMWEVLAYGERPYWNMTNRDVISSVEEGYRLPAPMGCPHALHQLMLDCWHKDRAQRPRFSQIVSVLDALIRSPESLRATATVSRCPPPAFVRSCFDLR
Chain of EPHA7, construct: aa579-end, human (Q15375 579-998, looked up): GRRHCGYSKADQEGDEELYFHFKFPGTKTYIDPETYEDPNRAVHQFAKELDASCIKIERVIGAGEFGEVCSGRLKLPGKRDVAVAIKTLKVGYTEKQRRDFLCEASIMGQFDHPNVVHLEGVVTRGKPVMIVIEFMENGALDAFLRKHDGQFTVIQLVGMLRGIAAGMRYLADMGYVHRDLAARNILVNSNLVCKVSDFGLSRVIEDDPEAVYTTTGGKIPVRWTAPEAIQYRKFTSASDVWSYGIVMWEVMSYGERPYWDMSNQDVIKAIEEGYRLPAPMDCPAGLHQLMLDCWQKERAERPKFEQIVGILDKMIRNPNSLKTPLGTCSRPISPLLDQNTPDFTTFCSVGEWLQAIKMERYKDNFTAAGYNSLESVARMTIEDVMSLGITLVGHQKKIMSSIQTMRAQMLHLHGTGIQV

EPHA7, construct: aa579-end, human (from UniProt Q15375)
relative phosphorylation
Conditions | at +1 | at +2 | at +3 | at +4 | at +5 | at -1 | at -2 | at -3 | at -4 | at -5
A fixed | 1.63 | 0.698 | 0.618 | 0.79 | 1.04 | 0.492 | 1.21 | 0.817 | 1.18 | 1.03
D fixed | 0.804 | 1.37 | 0.44 | 0.936 | 0.981 | 2.01 | 1.07 | 1.12 | 1.17 | 1.05
E fixed | 3 | 1.79 | 0.398 | 1.01 | 1.04 | 1.39 | 1.31 | 1.43 | 1.14 | 0.918
F fixed | 0.661 | 1.31 | 1.7 | 1.08 | 1.13 | 0.92 | 0.747 | 1.48 | 1.07 | 1.03
G fixed | 0.476 | 0.39 | 0.464 | 1.21 | 1.12 | 0.251 | 1.15 | 0.953 | 1.34 | 1.19
H fixed | 0.495 | 0.916 | 0.855 | 1.29 | 0.953 | 0.625 | 0.779 | 1.06 | 0.852 | 0.96
I fixed | 1.65 | 1.04 | 2.77 | 0.729 | 0.818 | 2.61 | 0.88 | 1.08 | 0.939 | 1.04
K fixed | 0.271 | 0.522 | 0.329 | 0.822 | 0.809 | 0.3 | 0.926 | 0.591 | 0.875 | 0.993
L fixed | 0.905 | 0.894 | 1.97 | 0.718 | 1.03 | 2.03 | 0.845 | 0.944 | 1.11 | 0.96
M fixed | 1.41 | 0.935 | 1.15 | 1.03 | 0.988 | 0.872 | 0.663 | 0.913 | 0.883 | 0.921
N fixed | 0.429 | 1.21 | 0.479 | 0.793 | 0.815 | 1.99 | 0.985 | 0.995 | 0.772 | 1.1
P fixed | 0.204 | 0.609 | 0.93 | 1.4 | 1.64 | 0.346 | 1.51 | 1.15 | 1.33 | 1.11
Q fixed | 1.08 | 0.742 | 0.692 | 0.778 | 0.782 | 0.439 | 1.09 | 0.706 | 1.04 | 0.94
R fixed | 0.358 | 0.924 | 0.455 | 1.03 | 0.859 | 0.489 | 1.05 | 0.759 | 0.945 | 1.1
S fixed | 0.725 | 0.769 | 0.537 | 0.853 | 0.994 | 0.457 | 1.26 | 0.877 | 0.784 | 0.834
T fixed | 0.803 | 0.994 | 0.615 | 0.904 | 1.01 | 1.1 | 0.921 | 0.895 | 0.673 | 0.851
V fixed | 2.03 | 1.04 | 2.05 | 0.733 | 0.797 | 1.1 | 0.936 | 0.876 | 0.822 | 0.831
W fixed | 1.06 | 1.84 | 1.55 | 1.89 | 1.19 | 0.569 | 0.67 | 1.36 | 1.07 | 1.15
pThr fixed | 1.8 | 2.11 | 0.552 | 0.851 | 0.651 | 2.07 | 0.877 | 0.772 | 0.877 | 0.834
pTyr fixed | 1.98 | 6.7 | 0.866 | 1.14 | 0.865 | 1.94 | 0.896 | 1.02 | 1.08 | 1.12

EPHA8, construct: aa571-924, human (from UniProt P29322)
relative phosphorylation
Conditions | at +1 | at +2 | at +3 | at +4 | at +5 | at -1 | at -2 | at -3 | at -4 | at -5
A fixed | 1.46 | 0.773 | 0.757 | 0.81 | 1.11 | 0.454 | 1.15 | 0.671 | 1.11 | 0.971
D fixed | 0.978 | 1.49 | 0.359 | 0.911 | 1.19 | 1.98 | 1.35 | 1.49 | 1.48 | 1.17
E fixed | 2.64 | 1.84 | 0.346 | 1.02 | 1.34 | 2.03 | 1.77 | 2.17 | 1.74 | 1.13
F fixed | 0.777 | 1.38 | 1.62 | 1.22 | 0.934 | 0.855 | 0.708 | 1.42 | 1.07 | 1.02
G fixed | 0.716 | 0.419 | 0.572 | 1.28 | 1.08 | 0.242 | 1.15 | 0.899 | 1.18 | 1.21
H fixed | 0.624 | 0.838 | 0.819 | 1.11 | 1.1 | 0.672 | 0.853 | 1.03 | 0.87 | 1.06
I fixed | 1.68 | 0.884 | 2.9 | 0.857 | 0.617 | 2.9 | 0.735 | 0.849 | 0.845 | 0.956
K fixed | 0.266 | 0.506 | 0.32 | 0.772 | 0.957 | 0.249 | 0.685 | 0.528 | 0.715 | 0.87
L fixed | 0.814 | 0.891 | 1.71 | 0.778 | 0.721 | 1.54 | 0.792 | 0.651 | 0.901 | 0.949
M fixed | 1.37 | 0.786 | 1.23 | 0.944 | 0.855 | 0.698 | 0.559 | 0.833 | 0.843 | 1.02
N fixed | 0.384 | 1.1 | 0.453 | 0.838 | 0.869 | 1.92 | 1.22 | 1.07 | 0.96 | 1.05
P fixed | 0.293 | 0.783 | 1.11 | 1.39 | 1.72 | 0.391 | 1.4 | 0.927 | 0.974 | 1.08
Q fixed | 1.07 | 0.823 | 0.559 | 0.932 | 0.897 | 0.402 | 1.11 | 0.813 | 1.12 | 0.977
R fixed | 0.318 | 0.723 | 0.453 | 1.05 | 1.14 | 0.288 | 0.778 | 0.688 | 0.818 | 0.884
S fixed | 0.849 | 0.886 | 0.485 | 0.822 | 0.943 | 0.422 | 1.14 | 0.958 | 0.838 | 0.834
T fixed | 0.745 | 0.855 | 0.607 | 0.795 | 0.96 | 1.15 | 0.865 | 0.837 | 0.67 | 0.782
V fixed | 1.7 | 0.914 | 2.1 | 0.81 | 0.644 | 1.11 | 0.947 | 0.728 | 0.779 | 0.849
W fixed | 1.32 | 2.12 | 1.59 | 1.65 | 0.932 | 0.693 | 0.778 | 1.44 | 1.1 | 1.19
pThr fixed | 1.94 | 2.25 | 0.437 | 1.02 | 1.1 | 3.17 | 1.26 | 1.04 | 0.986 | 0.968
pTyr fixed | 4.68 | 7.04 | 1.16 | 1.22 | 1.39 | 2.63 | 1.63 | 1.34 | 1.37 | 1.27
